In patent US20230212260A1 (published 2023):
Blank lines part the entries; values can stand above or below the molecule they belong to.

How the values were obtained:
CD40 = CD40 (UniProt P25942); experiment: cell-based or functional assay
human CEA = molecular target: T1, human CEA (human, UniProt P06731 35-685, limits assumed); experiment: ELISA
T1 sequence (looked up): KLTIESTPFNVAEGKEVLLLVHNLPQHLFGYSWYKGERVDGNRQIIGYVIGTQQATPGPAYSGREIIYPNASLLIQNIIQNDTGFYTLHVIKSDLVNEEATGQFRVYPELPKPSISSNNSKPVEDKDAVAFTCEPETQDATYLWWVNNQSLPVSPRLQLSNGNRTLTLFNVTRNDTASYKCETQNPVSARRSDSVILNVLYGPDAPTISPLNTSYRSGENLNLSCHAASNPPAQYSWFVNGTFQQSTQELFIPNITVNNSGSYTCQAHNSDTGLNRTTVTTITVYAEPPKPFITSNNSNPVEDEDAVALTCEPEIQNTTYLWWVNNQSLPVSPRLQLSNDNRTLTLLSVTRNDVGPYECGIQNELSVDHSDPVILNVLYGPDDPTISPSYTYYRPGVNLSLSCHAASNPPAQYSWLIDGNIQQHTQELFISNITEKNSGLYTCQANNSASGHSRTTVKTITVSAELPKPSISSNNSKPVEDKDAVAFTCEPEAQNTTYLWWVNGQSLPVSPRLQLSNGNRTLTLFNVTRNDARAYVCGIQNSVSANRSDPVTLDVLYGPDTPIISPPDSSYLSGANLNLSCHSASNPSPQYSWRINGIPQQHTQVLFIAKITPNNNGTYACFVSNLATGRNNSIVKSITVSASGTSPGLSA

CD27 = molecular target: T2, CD27 (UniProt P26842 20-260, limits assumed); experiment: cell-based or functional assay
T2 sequence (looked up): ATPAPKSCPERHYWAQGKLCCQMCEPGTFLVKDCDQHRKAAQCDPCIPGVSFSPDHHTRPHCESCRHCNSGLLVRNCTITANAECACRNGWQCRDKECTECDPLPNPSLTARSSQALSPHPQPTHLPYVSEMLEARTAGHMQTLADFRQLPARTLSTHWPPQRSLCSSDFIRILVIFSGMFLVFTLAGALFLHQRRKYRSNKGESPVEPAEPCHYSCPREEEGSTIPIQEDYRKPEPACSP

Sequence of CD40 (P25942 21-277 limits assumed): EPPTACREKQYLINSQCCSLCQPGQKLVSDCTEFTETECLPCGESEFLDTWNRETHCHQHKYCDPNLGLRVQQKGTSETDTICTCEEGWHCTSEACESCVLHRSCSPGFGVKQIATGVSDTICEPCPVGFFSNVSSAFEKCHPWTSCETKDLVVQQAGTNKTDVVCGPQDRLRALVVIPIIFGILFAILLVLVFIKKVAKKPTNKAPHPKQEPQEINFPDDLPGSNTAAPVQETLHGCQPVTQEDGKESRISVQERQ

immature dendritic cell activation assay, activation level (CD86+ / CD83+), 100 ng/ml, 24 h (CD40): 46.1%
Molecule: Trimeric CD40L (ligand)

binding result (human CEA): binds
B1: aCEA-scCD40L (bispecific antibody)
heavy: EVQLLESGGGLVQPGGSLRLSCATSGFTFTDYYMNWVRQAPGKGLEWLGFIGNKANGYTTEYSASVKGRFTISRDKSKSTLYLQMNTLQAEDSAIYYCTRDRGLRFYFDYWGQGTLVTVSSASTKGPSVFPFAPSSKSTSGGTAALGCLVKDYFPEPVTVSWNSGALTSGVHTFPAVLQSSGLYSLSSVVTVPSSSLGTQTYICNVNHKPSNTKVDKKVEPKSCDKTHGSGSSSSSSQIAAHVISEASSKTTSVLQWAEKGYYTMSNNLVTLENGKQLTVKRQGLYYIYAQVTFCSNREASSQAPFIASLSLKSPGRFERILLRAANTHSSAKPCGQQSIHLGGVFELQPGASVFVNVTDPSQVSHGTGFTSFGLLKLGSGSGNGSQIAAHVISEASSKTTSVLQWAEKGYYTMSNNLVTLENGKQLTVKRQGLYYIYAQVTFCSNREASSQAPFIASLSLKSPGRFERILLRAANTHSSAKPCGQQSIHLGGVFELQPGASVFVNVTDPSQVSHGTGFTSFGLLKLGSGSGNGSQIAAHVISEASSKTTSVLQWAEKGYYTMSNNLVTLENGKQLTVKRQGLYYIYAQVTFCSNREASSQAPFIASLSLKSPGRFERILLRAANTHSSAKPCGQQSIHLGGVFELQPGASVFVNVTDPSQVSHGTGFTSFGLLKL
light: QTVLTQSPSSLSVSVGDRVTITCRASSSVTYIHWYQQKPGLAPKSLIYATSNLASGVPSRFSGSGSGTDYTFTISSLQPEDIATYYCQHWSSKPPTFGQGTKVEVKRTVAAPSVFIFPPSDEQLKSGTASVVCLLNNFYPREAKVQWKVDNALQSGNSQESVTEQDSKDSTYSLSSTLTLSKADYEKHKVYACEVTHQGLSSPVTKSFNRGEC

CD27 Luciferase assay with MDA-MB231 cells, activity against that of scCD27L-Fc (CD27): ~3 fold
B2: aPDL1-scCD27L-SAB (bispecific antibody, human IgG1, kappa)
chain: QSLGWDVAELQLNHTGPQQDPRLYWQGGPALGRSFLHGPELDKGQLRIHRDGIYMVHIQVTLAICSSTTASRHHPTTLAVGICSPASRSISLLRLSFHQGCTIASQRLTPLARGDTLCTNLTGTLLPSRNTDETFFGVQWVRPGSGSGNGSESLGWDVAELQLNHTGPQQDPRLYWQGGPALGRSFLHGPELDKGQLRIHRDGIYMVHIQVTLAICSSTTASRHHPTTLAVGICSPASRSISLLRLSFHQGCTIASQRLTPLARGDTLCTNLTGTLLPSRNTDETFFGVQWVRPGSGSGNGSESLGWDVAELQLNHTGPQQDPRLYWQGGPALGRSFLHGPELDKGQLRIHRDGIYMVHIQVTLAICSSTTASRHHPTTLAVGICSPASRSISLLRLSFHQGCTIASQRLTPLARGDTLCTNLTGTLLPSRNTDETFFGVQWVRPGSGSDKTHTCPPCPAPELLGGPSVFLFPPKPKDTLMISRTPEVTCVVVDVSHEDPEVKFNWYVDGVEVHNAKTKPREEQYSSTYRVVSVLTVLHQDWLNGKEYKCKVSNKALPAPIEKTISKAKGQPREPQVYTLPPCRDELTKNQVSLWCLVKGFYPSDIAVEWESNGQPENNYKTTPPVLDSDGSFFLYSKLTVDKSRWQQGNVFSCSVMHEALHNHYTQKSLSLSPGK
heavy: EVQLLESGGGLVQPGGSLRLSCAASGFTFSSYIMMWVRQAPGKGLEWVSSIYPSGGITFYADTVKGRFTISRDNSKNTLYLQMNSLRAEDTAVYYCARIKLGTVTTVDYWGQGTLVTVSSASTKGPSVFPLAPSSKSTSGGTAALGCLVKDYFPEPVTVSWNSGALTSGVHTFPAVLQSSGLYSLSSVVTVPSSSLGTQTYICNVNHKPSNTKVDKKVEPKSCDKTHTCPPCPAPELLGGPSVFLFPPKPKDTLMISRTPEVTCVVVDVSHEDPEVKFNWYVDGVEVHNAKTKPREEQYSSTYRVVSVLTVLHQDWLNGKEYKCKVSNKALPAPIEKTISKAKGQPREPQVCTLPPSRDELTKNQVSLSCAVKGFYPSDIAVEWESNGQPENNYKTTPPVLDSDGSFFLVSKLTVDKSRWQQGNVFSCSVMHEALHNRFTQKSLSLSPGK
light: QSALTQPASVSGSPGQSITISCTGTSSDVGGYNYVSWYQQHPGKAPKLMIYDVSNRPSGVSNRFSGSKSGNTASLTISGLQAEDEADYYCSSYTSSSTRVFGTGTKVEIKRTVAAPSVFIFPPSDEQLKSGTASVVCLLNNFYPREAKVQWKVDNALQSGNSQESVTEQDSKDSTYSLSSTLTLSKADYEKHKVYACEVTHQGLSSPVTKSFNRGEC
